Where two headings read alike, the source gives them in different places.
B1: C10 intact bivalent IgG1 (human monoclonal antibody EDE1 C10) (protein)
chain 1: EVQLVESGAEVKKPGASVKVSCKASGYTFTSYAMHWVRQAPGQRLEWMGWINAGNGNTKYSQKFQDRVTITRDTSASTAYMELSSLRSEDTAIYYCARDKVDDYGDYWFPTLWYFDYWGQGTLVTVSS
chain 2: QSALTQPASVSGSPGQSITISCTGTSSDVGGFNYVSWFQQHPGKAPKLMLYDVTSRPSGVSSRFSGSKSGNTASLTISGLQAEDEADYYCSSHTSRGTWVFGGGTKLTVL
B2: C10 monovalent antigen binding fragment (Fab) (protein)
chain 1: B1 chain 1
chain 2: B1 chain 2

Target: DENV1 strain Hawaii envelope (E) protein on virions (Dengue virus 1 (strain Hawaii))
Assay: ELISA; apparent

| Binder | Kd | Kd (Fab) |
| --- | --- | --- |
| B1 | 2.6 nM |  |
| B2 |  | 9.85 nM |
